Laboratory results: patent publication KR20190016466A

Columns and labels:
[1] = target: human FcRn (hFcRn) (human) (UniProt P55899); experiment: SPR (XPR36), hFcRn on chip, antibody flowed, pH 7.4
[2] = target: human FcRn (hFcRn) (human) (UniProt P55899); experiment: ELISA, antibody coated, hFcRn added, anti-6-His detection, pH 7.4; reference WT
[3] = target: human FcRn (hFcRn) (human) (UniProt P55899); experiment: ELISA, antibody coated, hFcRn added, anti-6-His detection, pH 6.0; reference WT
[4] = target: human FcRn (hFcRn) (human) (UniProt P55899); experiment: SPR (XPR36), hFcRn on chip, antibody flowed, pH 6.0

UniProt P55899, sequence (P55899 24-297 limits assumed, form in doubt): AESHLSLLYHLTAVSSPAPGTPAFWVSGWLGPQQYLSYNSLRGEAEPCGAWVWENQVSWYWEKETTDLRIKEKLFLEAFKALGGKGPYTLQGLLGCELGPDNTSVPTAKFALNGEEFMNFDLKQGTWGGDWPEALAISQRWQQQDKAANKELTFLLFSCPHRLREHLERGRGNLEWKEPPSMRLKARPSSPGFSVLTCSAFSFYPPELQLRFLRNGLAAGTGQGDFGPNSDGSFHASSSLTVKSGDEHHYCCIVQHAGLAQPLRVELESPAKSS

Substance	RU [1] [RU]	fold increase of affinity over WT [2]	fold increase of affinity over WT [3]	RU [4] [RU]
MN (M457L/N463S) 변이 SO57 항체 (antibody)	70	15 배 (fold)	16 배 (fold)	180
HN (H462K/N463F) 변이 SO57 항체 (antibody)	100	17 배 (fold)	18 배 (fold)	195
MST (M281Y/S283T/T285E) 변이 SO57 항체 (antibody)	20	2 배 (fold)	12 배 (fold)	140
